4 molecules from patent US20250352667A1 can be followed below.

For assay [1], the target named is KEAP1 (wild-type full-length), His-tagged (human) (UniProt Q14145). As to the kind of experiment: AlphaScreen; FLAG-NRF2 wt isoform 1 19.2 nM, His-KEAP1 150 nM; Rep 3; positive control for I86V.
For assay [2] the target is unchanged. As to the kind of experiment: AlphaScreen; 2.4 nM FLAG-NRF2, 150 nM His-KEAP1; Rep 1; control for I28V.
The target is the same in assay [3]. Nature of the assay: AlphaScreen; FLAG-NRF2 wt isoform 1 9.6 nM, His-KEAP1 150 nM; Rep 1; positive control for I86V.
Assay [4] has the same target. As to the kind of experiment: AlphaScreen; 2.4 nM FLAG-NRF2, 150 nM His-KEAP1; signal against NRF2 only; control for I86V.
Assay [5] shares this target. As to the kind of experiment: AlphaScreen; FLAG-NRF2 wt isoform 1 1228.8 nM, His-KEAP1 150 nM; Rep 1; positive control for Q75R.
Assay [6] has the same target. Nature of the assay: AlphaScreen; 614.4 nM FLAG-NRF2, 150 nM His-KEAP1; Rep 3; control for I86V.
Assay [7] has the same target. As to the kind of experiment: AlphaScreen; NRF2 wt isoform 1 38.4 nM, KEAP1 150 nM; set as the 100 % reference for I86V.
Assay [8] has the same target. Nature of the assay: AlphaScreen; 19.2 nM FLAG-NRF2, 150 nM His-KEAP1; Rep 1; control for I28V.
For assay [9] the target is unchanged. Nature of the assay: AlphaScreen; 76.8 nM FLAG-NRF2, 150 nM His-KEAP1; signal against NRF2 only; control for I28V.
The target is the same in assay [10]. As to the kind of experiment: AlphaScreen; 19.2 nM FLAG-NRF2, 150 nM His-KEAP1; Rep 1; control for I86V.
Assay [11] shares this target. As to the kind of experiment: AlphaScreen; FLAG-NRF2 Q75R 153.6 nM, His-KEAP1 150 nM; Rep 2.
Assay [12] has the same target. Nature of the assay: AlphaScreen; NRF2 Q75R 76.8 nM, KEAP1 150 nM; signal against NRF2-only control.
The target is the same in assay [13]. Nature of the assay: AlphaScreen; NRF2 Q75R 4.8 nM, KEAP1 150 nM; signal against NRF2-only control.
The target is the same in assay [14]. Nature of the assay: AlphaScreen; FLAG-NRF2 Q75R 9.6 nM, His-KEAP1 150 nM; Repeat 2.
The target is the same in assay [15]. As to the kind of experiment: AlphaScreen; FLAG-NRF2 Q75R 307.2 nM, His-KEAP1 150 nM; Rep 2.
Assay [16] has the same target. As to the kind of experiment: AlphaScreen; 76.8 nM FLAG-NRF2, 150 nM His-KEAP1; Rep 2.
Assay [17] shares this target. Nature of the assay: AlphaScreen; 4.8 nM FLAG-NRF2, 150 nM His-KEAP1; Rep 1.
The target is the same in assay [18]. Nature of the assay: AlphaScreen; 19.2 nM FLAG-NRF2, 150 nM His-KEAP1; Rep 1.
The target is the same in assay [19]. As to the kind of experiment: AlphaScreen; 38.4 nM FLAG-NRF2, 150 nM His-KEAP1; Repeat 2 (same value as in Table 27).
Assay [20] shares this target. Nature of the assay: AlphaScreen; 76.8 nM FLAG-NRF2, 150 nM His-KEAP1; signal against NRF2 only.
For assay [21] the target is unchanged. Nature of the assay: AlphaScreen; mean over 9.6, 19.2 and 38.4 nM NRF2; 150 nM His-KEAP1; against wild-type NRF2 isoform 1 = 100%.
Assay [22] has the same target. As to the kind of experiment: AlphaScreen; 38.4 nM FLAG-NRF2, 150 nM His-KEAP1; Rep 1.
Assay [23] has the same target. As to the kind of experiment: AlphaScreen; FLAG-NRF2 I86V 2.4 nM, His-KEAP1 150 nM; Rep 1.
The target is the same in assay [24]. As to the kind of experiment: AlphaScreen; FLAG-NRF2 I86V 9.6 nM, His-KEAP1 150 nM; Rep 1.
Assay [25] has the same target. As to the kind of experiment: AlphaScreen; FLAG-NRF2 I86V 153.6 nM, His-KEAP1 150 nM; Rep 1.
The target is the same in assay [26]. As to the kind of experiment: AlphaScreen; FLAG-NRF2 I86V 76.8 nM, His-KEAP1 150 nM; Rep 1.
Assay [27] shares this target. Nature of the assay: AlphaScreen; FLAG-NRF2 I86V 307.2 nM, His-KEAP1 150 nM; Rep 2.

Chain of KEAP1 (wild-type full-length), His-tagged (human) (Q14145 2-624 limits assumed): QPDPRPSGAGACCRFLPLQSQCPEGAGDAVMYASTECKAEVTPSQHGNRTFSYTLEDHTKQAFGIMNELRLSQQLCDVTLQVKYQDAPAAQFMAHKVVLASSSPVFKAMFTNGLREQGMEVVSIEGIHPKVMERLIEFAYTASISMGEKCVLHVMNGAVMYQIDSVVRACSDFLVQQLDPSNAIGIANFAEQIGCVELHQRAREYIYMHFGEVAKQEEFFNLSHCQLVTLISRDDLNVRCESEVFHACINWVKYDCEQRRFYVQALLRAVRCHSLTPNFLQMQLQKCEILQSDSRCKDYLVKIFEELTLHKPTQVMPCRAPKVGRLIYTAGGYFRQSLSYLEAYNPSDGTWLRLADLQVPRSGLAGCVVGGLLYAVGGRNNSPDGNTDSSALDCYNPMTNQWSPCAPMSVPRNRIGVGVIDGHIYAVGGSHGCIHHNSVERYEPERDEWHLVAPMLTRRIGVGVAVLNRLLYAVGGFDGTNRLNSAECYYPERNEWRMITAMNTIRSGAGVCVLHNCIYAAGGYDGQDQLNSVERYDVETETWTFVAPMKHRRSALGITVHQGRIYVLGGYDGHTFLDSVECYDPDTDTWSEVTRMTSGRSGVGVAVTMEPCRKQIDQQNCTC

B1: NRF2 isoform 1 (wild-type full-length), FLAG-tagged (protein)
chain: MMDLELPPPGLPSQQDMDLIDILWRQDIDLGVSREVFDFSQRRKEYELEKQKKLEKERQEQLQKEQEKAFFAQLQLDEETGEFLPIQPAQHIQSETSGSANYSQVAHIPKSDALYFDDCMQLLAQTFPFVDDNEVSSATFQSLVPDIPGHIESPVFIATNQAQSPETSVAQVAPVDLDGMQQDIEQVWEELLSIPELQCLNIENDKLVETTMVPSPEAKLTEVDNYHFYSSIPSMEKEVGNCSPHFLNAFEDSFSSILSTEDPNQLTVNSLNSDATVNTDFGDEFYSAFIAEPSISNSMPSPATLSHSLSELLNGPIDVSDLSLCKAFNQNHPESTAEFNDSDSGISLNTSPSVASPEHSVESSSYGDTLLGLSDSEVEELDSAPGSVKQNGPKTPVHSSGDMVQPLSPSQGQSTHVHDAQCENTPEKELPVSPGHRKTPFTKDKHSSRLEAHLTRDELRAKALHIPFPVEKIINLPVVDFNEMMSKEQFNEAQLALIRDIRRRGKNKVAAQNCRKRKLENIVELEQDLDHLKDEKEKLLKEKGENDKSLHLLKKQLSTLYLEVFSMLRDEDGKPYSPSEYSLQQTRDGNVFLVPKSKKPDVKKN
For the molecule B1, the figures for the A-counts (NRF2 plus KEAP1) in [1], in [3] and in [5] were 3040 A-counts, 2640 A-counts and 1490 A-counts, respectively. The A-counts turned out to be 622 A-counts in [2], 2720 A-counts in [6], 1980 A-counts in assay [8] and 3300 A-counts in assay [10]. Further, the S/N in [4] was found to be 1.7; in assay [9], 2.7. In assay [7], this molecule displayed a Binding Percentage of 100%.

B2: NRF2 isoform 1 (Q75R full-length), FLAG-tagged (protein)
chain: MMDLELPPPGLPSQQDMDLIDILWRQDIDLGVSREVFDFSQRRKEYELEKQKKLEKERQEQLQKEQEKAFFAQLRLDEETGEFLPIQPAQHIQSETSGSANYSQVAHIPKSDALYFDDCMQLLAQTFPFVDDNEVSSATFQSLVPDIPGHIESPVFIATNQAQSPETSVAQVAPVDLDGMQQDIEQVWEELLSIPELQCLNIENDKLVETTMVPSPEAKLTEVDNYHFYSSIPSMEKEVGNCSPHFLNAFEDSFSSILSTEDPNQLTVNSLNSDATVNTDFGDEFYSAFIAEPSISNSMPSPATLSHSLSELLNGPIDVSDLSLCKAFNQNHPESTAEFNDSDSGISLNTSPSVASPEHSVESSSYGDTLLGLSDSEVEELDSAPGSVKQNGPKTPVHSSGDMVQPLSPSQGQSTHVHDAQCENTPEKELPVSPGHRKTPFTKDKHSSRLEAHLTRDELRAKALHIPFPVEKIINLPVVDFNEMMSKEQFNEAQLALIRDIRRRGKNKVAAQNCRKRKLENIVELEQDLDHLKDEKEKLLKEKGENDKSLHLLKKQLSTLYLEVFSMLRDEDGKPYSPSEYSLQQTRDGNVFLVPKSKKPDVKKN
For the molecule B2, the A-counts (NRF2 plus KEAP1) was 991 A-counts in assay [11], 1090 A-counts in assay [14] and 1020 A-counts in assay [15]. In addition, the S/N stood at 1.8 in assay [12] and 2.3 in assay [13].

B3: NRF2 isoform 1 (I28V full-length), FLAG-tagged (protein)
chain: MMDLELPPPGLPSQQDMDLIDILWRQDVDLGVSREVFDFSQRRKEYELEKQKKLEKERQEQLQKEQEKAFFAQLQLDEETGEFLPIQPAQHIQSETSGSANYSQVAHIPKSDALYFDDCMQLLAQTFPFVDDNEVSSATFQSLVPDIPGHIESPVFIATNQAQSPETSVAQVAPVDLDGMQQDIEQVWEELLSIPELQCLNIENDKLVETTMVPSPEAKLTEVDNYHFYSSIPSMEKEVGNCSPHFLNAFEDSFSSILSTEDPNQLTVNSLNSDATVNTDFGDEFYSAFIAEPSISNSMPSPATLSHSLSELLNGPIDVSDLSLCKAFNQNHPESTAEFNDSDSGISLNTSPSVASPEHSVESSSYGDTLLGLSDSEVEELDSAPGSVKQNGPKTPVHSSGDMVQPLSPSQGQSTHVHDAQCENTPEKELPVSPGHRKTPFTKDKHSSRLEAHLTRDELRAKALHIPFPVEKIINLPVVDFNEMMSKEQFNEAQLALIRDIRRRGKNKVAAQNCRKRKLENIVELEQDLDHLKDEKEKLLKEKGENDKSLHLLKKQLSTLYLEVFSMLRDEDGKPYSPSEYSLQQTRDGNVFLVPKSKKPDVKKN
B3: the A-counts in assay [16] was 1500 A-counts; in assay [17] it was 1120 A-counts; in [18], 1730 A-counts; in assay [19] it was 1680 A-counts; in [22] it was 1690 A-counts. In [20], this molecule yielded a S/N of 2.2. Further, the Average Binding in [21] worked out at 69.8%.

B4: NRF2 isoform 1 (I86V full-length), FLAG-tagged (protein)
chain: MMDLELPPPGLPSQQDMDLIDILWRQDIDLGVSREVFDFSQRRKEYELEKQKKLEKERQEQLQKEQEKAFFAQLQLDEETGEFLPVQPAQHIQSETSGSANYSQVAHIPKSDALYFDDCMQLLAQTFPFVDDNEVSSATFQSLVPDIPGHIESPVFIATNQAQSPETSVAQVAPVDLDGMQQDIEQVWEELLSIPELQCLNIENDKLVETTMVPSPEAKLTEVDNYHFYSSIPSMEKEVGNCSPHFLNAFEDSFSSILSTEDPNQLTVNSLNSDATVNTDFGDEFYSAFIAEPSISNSMPSPATLSHSLSELLNGPIDVSDLSLCKAFNQNHPESTAEFNDSDSGISLNTSPSVASPEHSVESSSYGDTLLGLSDSEVEELDSAPGSVKQNGPKTPVHSSGDMVQPLSPSQGQSTHVHDAQCENTPEKELPVSPGHRKTPFTKDKHSSRLEAHLTRDELRAKALHIPFPVEKIINLPVVDFNEMMSKEQFNEAQLALIRDIRRRGKNKVAAQNCRKRKLENIVELEQDLDHLKDEKEKLLKEKGENDKSLHLLKKQLSTLYLEVFSMLRDEDGKPYSPSEYSLQQTRDGNVFLVPKSKKPDVKKN
For B4, the A-counts (NRF2 plus KEAP1) in assay [23] turned out to be 1730 A-counts; in assay [24], 2730 A-counts; in assay [25], 2380 A-counts; in assay [26], 2810 A-counts; in assay [27] it was 2120 A-counts.
